Tested on: His6ZQGRep4CT

Protease 3C was tested, and the “Protease 3C cleavage of a Z-Rep4CT fiber (SDS-PAGE of the cleavage supernatant)” value was “the Protease 3C cleavage site is available for cleavage in Z-Rep4CT fibers and therefore, the HZ part can be removed”.

Source: patent US20130316376
